Reference: patent publication US20230194545A1 (SEATTLE CHILDREN S HOSPITAL D B A SEATTLE CHILDREN S …, published 2023)

Molecular target: T1, WASp 289-304 signature peptide (human)
T1 construct: Endogenous tryptic peptide released from human dried blood spot digests
T1 peptide: LIYDFIEDQGGLEAVR
Assay: immuno-SRM: peptide enrichment from normal control DBS digests, quantified by LC-SRM-MS

B1: Anti-WASp 289 monoclonal antibody (antibody, V domains shown)
VH: QSVEESGGRLVTPGTPLTLTCTVSGFSLSSSDMTWVRQAPGKGLEYIGYMSSNDRPYYASWANGRFTISKTSTTVTLKITSPTTEDTATYFCCRGVLGTRSIHIWGPGTLVTVSL
VL: IVMTQTPSPVSAAVGGTVTINCQASESVYSDNRLSWYQQKPGQPPKQLIYGASTLASEVSSRFKGSGSGTQFTLTINDVVCDDAATYYCAGYKSSNQDGIGFGGGTEVVVKG
modifications: In the assay the antibody was chemically cross-linked (DMP) to Protein G magnetic beads; the letters do not carry this.
notes: Rabbit monoclonal antibody raised against the KLH-conjugated peptide; The printed light chain holds an X near its C-terminus; In the assay the antibody was cross-linked to Protein G magnetic beads
binding result: binds
